The nanobody polyreactivity screen of Harvey et al. (2022)

Assay: yeast display, Sf9 membrane polyspecificity reagent, FACS + sequencing; frameworks hold sequencing errors
In short: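 Polyreactivity labels are assigned by the sorting gate from which each nanobody was recovered. The gates were low and high (top ~1%), set on anti-HA fluorescence for expression and streptavidin fluorescence for reagent binding. Before sorting, galactose-induced (36–48 hours) yeast display cells were stained for 1 hour at 4 °C with 10% biotinylated, detergent-solubilized Sf9 membrane reagent.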

Sequence | polyreactivity (PSR sort gate)
QVQLVESGGGLVQAGGSLRLSCAASGSTFTSYAMGWYRQAPGKESEFVAAISWDGDNTYADSVKGRFTISRDNAKNTVYLQMNSLKPEDTAVYYCAASHQNGNFGWGYDSWGQGTQVTVSS | high polyreactivity
QVQLVESGGGLVQAGGSLRLSCAASGSTFTSYAMGWYRQAPRKERELVAAINYSGGSTYYADSVKGRFTISRDNAKNTVYLQMNSLKPEDTAVYYCAADGYIRQYVTYYYWGQGTQVTVSS | low polyreactivity
QVQLVESGGGLVQAGGSLRLSCAASGSTFTSYTMGWYRQAPGKERELVARITRGGGSTYYADSVKGRFTISRDNAKNTVYLQMNSLKPEDTAVYYCNAEGYLLPVGNTMDYWGQGTQVTVSS | low polyreactivity
QVQLVESGGGLVQAGGSLRLSCAASGSTFTTNAMGWYRQAPGKEREFVAAITRSSGSTYYADSVKGRFTISRDNAKNTVYLQMNSLKPEDTAVYYCAAAYRQNPSQSKSRFGYWGQGTQVTVSS | high polyreactivity
QVQLVESGGGLVQAGGSLRLSCAASGSTFTTNAMGWYRQAPGKERELVAAISSGGRTYYADSVKGRFTISRDNAKNTVYLQMNRLKPEDTAVYYCAAEIYYSIYQGSRFYYRGQGTQVTVSS | high polyreactivity
QVQLVESGGGLVQAGGSLRLSCAASGSTFTTNVMGWYRQAPGKERELVAAISWSSGSTYYADSVKGRFTISRDNAKNTVYLQMNSLKPEDTAVYYCAAKSTYVVSKMNYWGQGTQVTVSS | high polyreactivity
QVQLVESGGGLVQAGGSLRLSCAASGSTFTTYAMAWYRQAPGKERELVAAISTNGGRTFYADSVKGRFTISRDNAKNTVYLLMNSLKAEDTAVYYCAADRAGSIMNYWGQGTQVTVSS | low polyreactivity
QVQLVESGGGLVQAGGSLRLSCAASGSTFTTYAMGWYRQAPGKEREFVASIRWRGGNTYYADSVKGRFTISRDNAKNTVYLQMNSLKPEDTAVYYCARRVDYISSKYGYWGQGTQVTVSS | high polyreactivity
QVQLVESGGGLVQAGGSLRLSCAASGSTFTTYAMGWYRQAPGKERELVAAISTNGGRTFYADSVKGRFTISRDNAKNTVYLQMISLKPEDTAVYYCAAEYGLYAPGYYYWGQGTQVTVSS | low polyreactivity
QVQLVESGGGLVQAGGSLRLSCAASGSTFTTYAMGWYRQSPGKERELVAVITDSGGTYYADSVKGRFTISRDNAKNTVYLQMNSLKPEDTAVYYCNRVFPPTDYEFDSWGQGTQVTVSS | low polyreactivity
QVQLVESGGGLVQAGGSLRLSCAASGSTFTTYPMGWYRQAPGKERELVAAISTNGGRTFYADSVKGRFTISGDNAKKTVYLQMNSLKPEDTAVYYCAAEYGLYAPGYYYWGQGTQVTVSS | low polyreactivity
QVQLVESGGGLVQAGGSLRLSCAASGSTFTVNAMGWYREAPGKERELVAAITTSGGSTYYADSVKGRFTISRDNAENTVYFQMNSLKPEDTAVYYCNADGPWREVERPFRKEGNYWGQGTQVTVSS | low polyreactivity
QVQLVESGGGLVQAGGSLRLSCAASGSTFTVNAMGWYRQAPGKDRELVADINWIGGATYYADSVKGRFTSSRDNAKNTVYLQMNSLKPEDTALYYCNADVWEYFTYSFTGFGWYDYWGQGTQVTVSS | high polyreactivity
QVQLVESGGGLVQAGGSLRLSCAASGSTFTVNAMGWYRQAPGKERELVAAISWRGGTTYYADSVKGRFTISRDNAKNTVYLQMNSLKPEDTAVYYCAATSYRRSGRYYYWGQGTQVTVSS | high polyreactivity
QVQLVESGGGLVQAGGSLRLSCAASGSTFTVNAMGWYRQAPGKERELVAAISYTDSITYYADSVKGRFTISRDNAKNTVYLQMNSLKPEDTAVYYCAVDYTVYFATYSWPYLSTHEYWGQGTQVTVSS | high polyreactivity
QVQLVESGGGLVQAGGSLRLSCAASGSTFTVNGMGWYRQAPGKERELVAAITWGGGSTYYADSVKGRFTISRDNAKNTVYLQMNSLKPEDTAVYYCAADDGYLFDYWGQGTQVTVSS | low polyreactivity
